The results in this text go back to a protein production outcome set (Wang et al. 2014).

The series in a line: label from the status in PepcDB records.
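Further: failed if final PepcDB status was selected cloned or expressed and not failed if soluble or beyond.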

On to “MPAASQDNDGGPSQSGGPMADPAPLIDTDPARIGEYTLLGRLGQGGQGVVYLGSAPDGARVAVKTLHRDALDLPGLREQLAEEVEMARRVARFCTAQVLAADLDADPPYVVSEYVEGPSLQAVVRERGPLRGASLERLAVGTLTALAAIHQAGIVHRDFKPANVLMAPGGPRVIDFGIARALEGTAILTSRIAGTPAYMAPEQITGGPLGPAVDMFAWGATLVYAANGRGPFGHGSLKAVVQRVINDEPDFGELSGTLREIAERCLNKDAAQRPTAAETLMLVLGIEGPPPTEEPSTDTAIPVTHQTLVAGAIAAADTGEQESAAELYRSYPPAPPPPHSNVAAQPSPTPPPHPQTASGPQPSLPSTGAQHSGYGYATGPHQSGYGYATGPQQGGYAPPPGPHQHAYPTPHSGNAAIPPHGGPSGPYAPAQPWMPSTGGYPQTSQPYSGQQYQQQAEGTSTAFVLGVVSIAVIAGVLLFILLFLLIGSLG”, for which the protein production entry is listed as “failed”.

“MPAFRVPRVRRAQHAEVALGAVLGVMLIGLSVLISRFHLQPVEGVTVLAQLADASLGHNWAFYVVQFATMILLALSANTSFGGLPVLLKLPARDNYLPHVFALKADRQVHRHGVLTLAGVVAALLVFSGGDTNTLVPLFAIGVFIGFTIAQVGMVRHWRAE”: the protein production result is “failed”.

For the sequence “MPAGSDWRTQPPSDYAQWNPAPRMPNQPKPLTTAHHQFAAIVQNSFDAIVSKDVEGNVQSWNPAAEQIFGWTADEMIGNSIRVLIPPDRQHEEDDILQRIRTGEMVPKFETERLHKSGRRIHVAVTVSPLRDPDGRIVGASKIAHDITETVEIRRRLVASEHQFRSLANSIPQLAWIAESDGTVFWYNDRWFDYTGTTLEQLRGSGWTALHHPDHLERVRSKLQHSWDTGEAWEDTFPLRGKDGEYRWFLSRAMPLRDDSGEVWRWFGTNTDITVQRQHEQQIQMLMGEINHRAKNMLAVVQAMVMRTADRSFAESLGARLQALSRNQDLLIKRNWSGTPIGELIESQLAAVNDLIGTRVLIEGERELLLSPVASETIGLAIHELTTNATKYGALSNADGTVRIACEIRHTVDGPKLDLIWHEQGGPPVGEPNRAGFGTVMIDRNPRSALGADVEISYPESGLRWCLNAPLDRLVATP”, the protein production result is recorded as “not failed”.

On to “MPAIMPMLWKQPFGNNLWGLKMKKVEKLLIIGIVLISSILLGAMTLAKPAQANASIVIVIDNEVKHRIPLMVEEEMQTYEFKFGEQTGYLEVKNGKVRMLEMPKEICPEGICSETGWIARSSQAIVCLPNKIIVTIQGLDDKNDEIL”, for which the protein production result is “failed”.

For “MPAKRRSNARPARAWPTCLSRGSSAVKRVHVAAAVIRDASGKILIARRADTQHQGGLWEFPGGKVEPGEAVEAALARELQEELGIAVTAARPLIKVQHDYPDKQVLLDVWEVSAFSGEPHGAEGQPLAWVTARELADYEFPAANQPIVAAARLPAQYLITPEGLETPTLLRGMQKAVAQGCKLIQLRAPGGYDPQYRDLAVDAVGLCAGKAQLMLKGPFEWLGDFPSAGWHITAAQLRKYASAGRPFGKDRWLAASCHNAEELSLAQQMDVDFVTLSPVQPTQTHPDAQPLGWQQAEQLISGFNKPVYLLGGVGPAECQQAWAAGAQGVAGIRAFWPQD”, the protein production result was “failed”.

Turning to “MPAPKKALRRSLTVTSAALTALALLSPAALAAPSPSTSPSATPPASMSGVGGARLGKPGTQVDLAGGAPVLPKDLTARSWIVADAESGDVLAAHNAHWELAPASTLKMLFADTLLPKWPKTTKRKVQVSDLAGIGSGSSMVGIKEEETYTVHDLWLGVFLRSGNDAVHVLSAMNDGVEKTVADMNAHAKELQAGDTTVVSPDGYDMPGQVSSAYDLTLFARSGLQKKDFREYASTVRAKFPGETKKDKKGKTSREPFEIQNTNRLLAGDADVEVYPGIAGVKNGYTTNAGNTFTGVAEQGGKVLLVTVMHPAEDKHNEVYKETARLFDWGFRAAGKVRPVGELVRPRSATAASPSAEASGEAGGTGKGGAGTKPVAGAAAGDGAGGAGVAAGIAAGVLALLAGGAFLINRKWPLPDLVRRRTRP”, the protein production result is “failed”.

Take “MPASETQGGPPPDDHTDAEPPPPLPEQSDFADAVLAAMPDPVFVFGPQNTLAWGNPPLRQAVGHSAAALRGKSLPELFGKGDAAAVEQALDAVRAGRDTATAEVALLPREGPPRPCTFTARPLSGDVGPPNCVVGIAR”: the protein production entry is recorded as “failed”.

Regarding “MPAYDLIIRNGTICDGTGAPRFTGDVAVKNGLIVAVGAVRGDAAEEVDATGRIVAPGWVDVHTHYDGQATWDPEMAPSSWHGVTTVIMGNCGVGFAPAAPDRHDWLIGLMEGVEDIPGTALAEGMAWDWESFPEYLDSLEKMPRAVDVGTHVPHGAVRAYVLGEREKPGAVPTAEDIRKMSEIVEEGVRAGALGFSTSRTVIHKSVDGEVVPGTTATAEELIEIGRAMGRVGHGVFEMASDMKREWDEFGWMGALSRETGLPVTYAALQSIAKEMPLEEQIAEMRHQNAQGANIVAQIALRGNGVIMAWRGTIHPFRFRPSYAAIAELPWEEQLVQLKDPAFRAKVLAEANVYPDSDIVNLFRMIAEGWHNQFIMDEDFDYEPQPEASILLRAKTAGVSPDAFAYDKLMEDEGNGFIYLPILNYADGNLDFLEALQAADDTVNSLSDGGAHCGTICDAASPTFMLQHWVRDRRRGSRISLEHAIKRQCHDTARLYGLDDRGVIAPGYLADINVIDFDRVRLLKPWLAFDLPAGGKRLLQKAEGYDYTIKGGKVTFRNGEWTGATPGNLIRGPQRADLMEAAE”, the protein production result is “failed”.

Consider “MPDATLSNTSLGRLAWLWLTVLIVAVDQVSKYYFENALSLYQQIIVIPDYFSWTLAYNTGAAFSFLADGAGWQRWLFALIAVVVSAVLVVWLKRLGRDDTWLAIALALVLGGALGNLYDRVVLGHVIDFILVHWQNRWYFPAFNVADSAITVGAIMLALDMFKSKKTGETVND”, for which the protein production entry is listed as “failed”.

As to “MPDIDLHALSRTVLWATFALTFLFGAILQRTHFCTMGAVSDAVNIGDWSRLRMWALAIGVAMIGTGILGWAGWIDPAKTIYAAGRLQWLSALVGGLMFGFGMVLGSGCGSKTLVRIGGGNLKSVVVFVFLGLSAYMTLKGVFGVVRVATVDAVAIALPTTQDLPSVLGHALSADVRMLRLALALAIGGALAVWALAGRDFRTPDNLLGGIGVGLVIVAMWYVSGHLGYVAEDPDTLQEAFVATNSGRMEALSFVAPVSYTLEWLMFFSDTSKVLTVGIVSVLGVIAGSAAVALASGTFRWEGFANAEDTGNHIVGGILMGAGGVTALGCTIGQGLSGVSTLAIGSFVALAGILAGAVLAFRYQMWRLERGG”, the protein production result is “failed”.

Turning to “MPDSVEDTSTISLRICLEGHANALALNKDNNQIALAGRSLLKVYSINSNGFTESCNMRGKNQNLSYSANDVAWSTLDSNLLATAATNGVVSVWDLSKFGRQKQLLVYNEHERTAHTVTFHSSEPNILISGSQDGTIKCFDIRSDKSINTYFCNSESVRDVKFSPHTQNIFSAVSENGTVQLWDMRKWDKCMVQFTAHYGPVYTCDWHPTRNWLATGSRDKQIKVWNMDGRPGLEHTIHTIAVVGRVKWRPERTYHIASCALVVDYSVHVWDIRRPYIPFASFNEHTNVTTGIAWQGSDSHCLLSISKDSTIYKHAFKDATRPALKANAQGASLGRFGDISFANKIKEYEPKTSGASNTKSSSFIRRKTNVAGSIQFHLDHSKMYKFMVNDTFSGYPLSESVSRPTQEHESFIGCARELVISGKKLSELCEHNAEVSKKYGKHNATTLWNFIKLFYGSNHFEPPFEHRSSFSNQKNPMNSRRATQVASDWPQQRTELGQDLNGNTPETAHEIDVANVDDDTLGSSGVEHPPTSSVILSETQIISEITFDNFELLRNGFIYVGPTECPKALAFPALHHDVQAARPQLDLKASDHEKSPVS”, the protein production entry was “failed”.

With “MPDYVYGDSMVLKLTLEYSSVLLVSLICCIIAFTSTYTVMPRLINKLKEANVVGNDIHKISKPIVAEMGGIGILFGFTIGMFIGMYCFPELQYELMVTLLVILLVGIVGMVDDLVRLSSREKLFLLFLAGLPIIWVAPPKVGILYMIMMPVAVSIASNLTNMLAGLNGIESGLGSIAMTALTASCIIMGKYDVSIITMAMLGALLAFLMYNRYPSRVFPGDVGTLIIGACIASVAFIGRVKIIALIVLLPNIIDGILKFYSAGVVERHKHRPTEIAEDGKLIAPPEGFNSLIRWILRRPMTEKKVVMIVWSIGMFFGFLGVLLAFILPLDPF”, the protein production result is “failed”.

As for “MPEDLNWAIGGEAGDGIDSTGKIFAQALSRAGRHVFTSKDFASRIRGGYTAYKVRTSVDRVESVVDRLDILIALTERTIHENEDELHEDSVIIYDGERSTMQDVEVPGDATALEVPLKRLAEDAGGAIMLNVVALGAACEVTGFPIENLDESLEKRFGDKGEAIVENNKEAARKGQHYVQEEYGEFDYDMETTDEDYVLLNGDEAIGMGAIAAGCRFYSGYPITPATDVMEYMTGRVDQFGGKVVQAEDELSAINMALGAARAGARAMTATSGPGIDLMTETFGLVATSETPLVICDVMRSGPSTGMPTKQEQGDLNMTLYGGHGEIPRFVVAPTTVSECFWKTVEAFNLAEKYQTPVFLVSDLAMAVTEQTFSPETFDMDEVEIDRGKVVDENEIDAWLDEKGRFQAHFAAADGVSPRAFPGTTDGAHMTTGLEHDELGRRTEDTDVRIEQVDKRQRKVETAREQEDFDYREFGDSDADTLVISWGSNEGALREGLTLLEEDGYDVRFLSVPYIFPRPDLSEEIEAAEDVIVVECNATGQFADVIEHDVLERVQRINKYNGVRFKADELATEIKQTLDTPPEATQ”, the protein production entry was “failed”.

Turning to “MPEEALIVVDMQRDFMPGGALPVPEGDKIIPKVNEYIRKFKEKGALIVATRDWHPENHISFRERGGPWPRHCVQNTPGAEFVVDLPEDAVIISKATEPDKEAYSGFEGTDLAKILRGNGVKRVYICGVATEYCVRATALDALKHGFEVYLLRDAVKGIKPEDEERALEEMKSRGIKIVQF”, the protein production entry is listed as “not failed”.

“MPELPEVETTRRRLRPLVLGQTLRQVVHRDPARYRNTALAEGRRILEVDRRGKFLLFALEGGVELVAHLGMTGGFRLEPTPHTRAALVLEGRTLYFHDPRRFGRLFGVRRGDYREIPLLLRLGPEPLSEAFAFPGFFRGLKESARPLKALLLDQRLAAGVGNIYADEALFRARLSPFRPARSLTEEEARRLYRALREVLAEAVELGGSTLSDQSYRQPDGLPGGFQTRHAVYGREGLPCPACGRPVERRVVAGRGTHFCPTCQGEGP”: the protein production entry is given as “not failed”.

Take “MPEQDVPRVRLFGAHELKISDIFDEKKDIYYVPIFQGKDDVNKLHQSAYTGKNTKCAILDSGVLTDHPYLKDRMDAIEDFTGHGFQDREGHGTAVALNLAMTAPDASILIGKVYENDDVPLSEYINRIARGVNWAIDSGARIINLSVGMEKRKEDISNYPGCSEAVKNVCKAITQAIENGISVLVAAGANFPADCHESIIVVGLPGNPVYPKDVHPTVYSPFSPILVPTFLFEGYAHLKMGMYEQALALFKQAADLHPEDHQLWKYQALCRYGLKKYNDAILSFDKALAIKQSDVKTWYLKGITLLALTQNDKAIECFDEVLKLVNNAGLTGMKLTEFSNSISDDWYNMGVYYEQASRYDEAANCYDKAIRIDPLNAKAWNNRGVILAIEEKYEDSIKYFEVATELKPSMVDAWFNKGLALSRIGKYEESIEFFDKAIAIDPASNKALKERIRVSGKLKSKEE”: the protein production result is recorded as “failed”.

As for “MPERINKMKIIAFYLPQFHNIPENDEWWGDGFTEWVNVKKAKPIFDGHNQPRVPLNHNYYNLLDDDVKIWQADLAKKYGVYGFCYYHYWFDGKLLLEKPMEQMLENKKVDIPFCICWANEPWTRAWVGETKTLIPQKYGSKKEWKEHFDYLLPFFKDPRYILDEGKPLVVIYRPEIIDVLNDMLDYWNELAKNAGFEGLKFAYQSAGMDELPKNKRNDSRFDYDIEFQPAYAFTKLNKNTLPVLRKIKKVVSDFVEKRTGLTLRFIGSGKVAALNRVDYDKAWETILNTTPESIINVPGAFVDWDNTPRHGERGRVYIGKTPEKFEKYLSEQIRRAKNVYHKDMIFMYAWNEWAEGGYLEPDQTSGYAYLEAIKKALDENGENPWQH”, the protein production entry was “failed”.

Regarding “MPESRVKSEPSPAPYWRRNVRLIVLLLACWAGLTFVPAYFARQLAFDFIGWPFSFWMAAYGAPLAYLILIVIYALVMNRFDARSRTRRDD”, the protein production result is “failed”.
